Results: IntAct's records for PubMed 21185211

B1: Septin-4 (Homo sapiens), O43236-6 (parent)
chain: MIKRFLEDTTDDGELSKFVKDFSGNASCHPPEAKTWASRPQVPEPRPQAPDLYDDDLEFRPPSRPQSSDNQQYFCAPAPLSPSARPRSPWGKLDPYDSSEDDKEYVGFATLPNQVHRKSVKKGFDFTLMVAGESGLGKSTLVNSLFLTDLYRDRKLLGAEERIMQTVEITKHAVDIEEKGVRLRLTIVDTPGFGDAVNNTECWKPVAEYIDQQFEQYFRDESGLNRKNIQDNRVHCCLYFISPFGHGYGPSLRLLAPPGAVKGTGQEHQGQGCH
partner: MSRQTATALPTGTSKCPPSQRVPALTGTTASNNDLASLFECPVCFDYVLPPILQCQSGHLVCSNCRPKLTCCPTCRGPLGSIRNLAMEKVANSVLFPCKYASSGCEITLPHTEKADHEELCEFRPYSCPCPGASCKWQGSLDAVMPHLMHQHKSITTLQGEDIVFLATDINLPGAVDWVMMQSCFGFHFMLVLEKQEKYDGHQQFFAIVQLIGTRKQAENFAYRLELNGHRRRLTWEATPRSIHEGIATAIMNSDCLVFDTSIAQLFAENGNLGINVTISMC

Variants of: B1
Conditions: with siah1_human SIAH1, Q8IUQ4

Q: With V42A;E44A;R46A as the variant, how does the “effect of a mutation on the interaction” value read?
A: Its value is “disrupting interaction”.

Q: P40A;V42A;E44A;R46A was tested. Which “effect of a mutation on the interaction” value did it give?
A: Its value is “disrupting interaction”.
